Reference: US20240067734A1 (Hoffmann-La Roche, published 2024)

T1: human NKG2D expressed on cells (human, UniProt P26718 1-216)
T1 construct: the cell type is named under assay; also called NKG2D on NK92 cells; HEK293T human NKG2D
T1 chain: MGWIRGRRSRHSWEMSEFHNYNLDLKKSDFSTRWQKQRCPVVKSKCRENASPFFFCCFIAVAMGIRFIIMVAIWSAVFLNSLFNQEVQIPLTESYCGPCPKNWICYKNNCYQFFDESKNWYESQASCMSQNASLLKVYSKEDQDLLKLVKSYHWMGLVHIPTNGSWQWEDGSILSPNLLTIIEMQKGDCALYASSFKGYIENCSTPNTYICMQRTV

T2: CEA expressed on LS180 tumor cells (human, UniProt P06731 35-685)
T2 construct: whole, on cells; also called carcinoembryonic antigen; CEACAM5
T2 sequence (looked up): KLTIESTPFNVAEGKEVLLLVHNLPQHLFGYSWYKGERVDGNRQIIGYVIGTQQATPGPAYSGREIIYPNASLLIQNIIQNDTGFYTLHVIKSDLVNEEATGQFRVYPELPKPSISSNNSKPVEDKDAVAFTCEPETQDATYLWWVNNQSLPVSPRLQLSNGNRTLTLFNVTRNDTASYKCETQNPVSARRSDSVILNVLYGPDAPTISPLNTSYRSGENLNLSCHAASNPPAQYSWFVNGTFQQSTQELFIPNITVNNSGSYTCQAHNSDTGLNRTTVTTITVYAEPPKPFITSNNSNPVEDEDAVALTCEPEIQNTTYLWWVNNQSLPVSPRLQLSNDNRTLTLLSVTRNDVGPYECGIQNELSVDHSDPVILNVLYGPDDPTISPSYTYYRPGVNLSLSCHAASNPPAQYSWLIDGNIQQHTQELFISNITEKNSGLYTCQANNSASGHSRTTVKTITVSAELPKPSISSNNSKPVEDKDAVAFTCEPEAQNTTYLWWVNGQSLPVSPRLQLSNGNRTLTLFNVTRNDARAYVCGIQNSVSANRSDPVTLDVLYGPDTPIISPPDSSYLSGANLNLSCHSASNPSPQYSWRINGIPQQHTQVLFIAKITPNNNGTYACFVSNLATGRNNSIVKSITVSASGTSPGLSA

T3: hu N(A2B2)A-avi-His (human)
T3 construct: Construct containing the A2 domain of human CEA, with avi and His tags; also called human CEA (A2 domain)
T3 chain: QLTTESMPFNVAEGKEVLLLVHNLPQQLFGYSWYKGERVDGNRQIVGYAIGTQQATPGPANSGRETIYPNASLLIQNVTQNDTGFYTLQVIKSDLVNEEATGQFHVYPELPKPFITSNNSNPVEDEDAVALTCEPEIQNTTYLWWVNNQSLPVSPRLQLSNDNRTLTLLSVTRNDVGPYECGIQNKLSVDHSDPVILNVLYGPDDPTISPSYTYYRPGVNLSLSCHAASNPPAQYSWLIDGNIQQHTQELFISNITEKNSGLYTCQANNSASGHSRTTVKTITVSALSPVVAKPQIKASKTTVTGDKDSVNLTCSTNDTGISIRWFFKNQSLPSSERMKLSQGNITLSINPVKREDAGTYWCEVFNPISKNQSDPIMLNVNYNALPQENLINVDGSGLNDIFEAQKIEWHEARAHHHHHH

T4: his avi huNKG2D ECD (human, biotinylated at the avi-tag (in the ELISA))
T4 construct: Human NKG2D ECD with N-terminal H6-avi tags, forms non-covalent dimers; also called recombinant human NKG2D
T4 chain: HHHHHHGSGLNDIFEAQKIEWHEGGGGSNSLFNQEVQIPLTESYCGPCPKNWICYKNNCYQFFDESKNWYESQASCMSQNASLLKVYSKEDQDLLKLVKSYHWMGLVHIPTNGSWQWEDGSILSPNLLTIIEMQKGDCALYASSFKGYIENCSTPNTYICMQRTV


Columns and labels:
[1] = target: T1, human NKG2D expressed on cells; experiment: flow cytometry on NK cells (CD3- CD56+) within freshly isolated human PBMCs, anti-human Fc secondary antibody
Procedure: (§1) Viability of freshly isolated peripheral blood mononuclear cells (PBMCs) was checked and cells were adjusted to a density of 1 mio cells/ml in FACS buffer. 100 μl per well of the PBMCs (containing 0.1 mio cells) were seeded into a 96 well round bottom plate. The plate was centrifuged for 4 min at 400×g and the supernatant was removed. Then 0.5 μl FC BLOCK™ (BD Bioscience) in 20 μl total volume per well were added and the plate was incubated for 30 min at 4° C. Supernatant was removed and then 40 μl of the diluted anti-NKG2D antibodies were added to the cells and incubated for additional 30 min at 4° C. After the incubation, the cells were washed twice with 150 μl FACS buffer per well. […] The cells were incubated for an additional 30 min at 4° C. To remove unbound antibody, the cells were washed again twice with 150 μl per well FACS buffer. To fix the cells, 100 μl of FACS buffer containing 1% PFA were added to the wells. Before measuring the cells were re-suspended in 150 μl FACS buffer. The fluorescence was measured using a BD flow cytometer.

[2] = target: T1, human NKG2D expressed on cells; experiment: flow cytometry on NKG2D-positive NK92 cells, anti-human Fc secondary antibody
Procedure: (§2) Viability of NK92 cells or tumor cells (MKN-45, LS180) was checked and cells were re-suspended and adjusted to a density of 1 mio cells/ml. 100 μl per well of this cell suspension (containing 0.1 mio cells) were seeded into a 96 well round bottom plate. The plate was centrifuged for 4 min at 400×g and the supernatant was removed. Then 40 μl of the diluted antibodies or FACS buffer were added to the cells and incubated for 30 min at 4° C. After the incubation the cells were washed twice with 150 μl FACS buffer per well. […] The cells were incubated for an additional 30 min at 4° C. To remove unbound antibody, the cells were washed again twice with 150 μl per well FACS buffer. To fix the cells, 100 μl of FACS buffer containing 1% PFA were added to the wells. Before measuring, the cells were re-suspended in 150 μl FACS buffer. The fluorescence was measured using a BD flow cytometer.

[3] = target: T2, CEA expressed on LS180 tumor cells; experiment: flow cytometry on CEA-positive LS180 cells, anti-human Fc secondary antibody
Procedure: as §2

[4] = target: T1, human NKG2D expressed on cells; experiment: flow cytometry on CD8 T cells (CD3+ CD8+) within freshly isolated human PBMCs, anti-human Fc secondary antibody
Procedure: as §1

[5] = target: T1, human NKG2D expressed on cells; experiment: flow cytometry on NK92 cells, PE anti-human Fc secondary antibody
[6] = target: T3, hu N(A2B2)A-avi-His; experiment: SPR Biacore T200; antigen captured via anti-His, bispecific analyte
Procedure: (§3) On a CM5 chip, an anti-penta-His capture antibody (Qiagen Penta-His Antibody, BSA-free; #34660) was immobilized by standard amine coupling on flow cells 2 and 3 at approximately 12′000 RU. […] Regeneration at the level of the anti-H6 tag capture antibody was achieved by 2 pulses of 10 mM glycine/HCl pH 2.0 for 60 s. Data were double-referenced against the unimmobilized flow cell 1 and a zero concentration of the analyte. The sensorgrams of the analytes were fitted to a simple 1:1 Langmuir interaction model.

[7] = target: T4, his avi huNKG2D ECD; experiment: as above
Procedure: as §3

[8] = target: T1, human NKG2D expressed on cells; experiment: flow cytometry; NK92 cells

| Binder | EC50 (read off the curve) [1] [nM] | EC50 (read off the curve) [2] [nM] | EC50 (read off the curve) [3] [nM] | EC50 (read off the curve) [4] [nM] | EC50 (read off the curve) [5] [nM] | Kd [6] [nM] | Kd [7] [nM] | EC50 [8] [nM] |
| --- | --- | --- | --- | --- | --- | --- | --- | --- |
| NKG2D×CEA bispecific antibody, anti-NKG2D 395 (C50S) / anti-CEA B9, M format (bispecific antibody, V domains shown, also called monovalent format M) VH 1: QEQLEQSGGGLVTPGGSLKLCCTASGFDFNTFWMTWVRQAPGKGLEWIGSIHGGSGSRDYASWVNGRFTLSRDIDQSTACLQVNSLTAADTAMYYCARPGYRSWSKTFDLWGQGTMVTVSS VL 1: DIQMTQSPSSLSASVGDRVTITCRASQDISGALNWYQQKPGKAPNLLIYAASSLQSGVPSRFSGSGSGTDYTLTISSLQPEDFATYYCQQANSFPLTFGGGTKVEIK VH 2: VQLVESGGGLVQPGRSLRLSCAASGFTVSSYWMHWVRQAPGKGLEWVGFIRNKANGGTTEYAASVKGRFTISRDDSKNTLYLQMNSLRAEDTAVYYCARDRGLRFYFDYWGQGTTVTVSS VL 2: QAVLTQPASLSASPGASASLTCTLRRGINVGAYSIYWYQQKPGSPPQYLLRYKSDSDKQQGSGVSSRFSASKDASANAGILLISGLQSEDEADYYCMIWHSGASAVFGGGTKLTVL | ~5 | ~4 | ~10 | ~5 | – | – | – | – |
| NKG2D×CEA bispecific antibody in M format, P1AE4980 / huA5B7 (bispecific antibody, human IgG1, kappa, L234A L235A, also called NKG2D×CEA bispecific antibody (humanized anti-NKG2D antibody variant P1AE4980, M format)) heavy 1: not shown heavy 2: EVQLLESGGGLVQPGGSLRLSCAASGFTFTDYYMNWVRQAPGKGLEWLGFIGNKANAYTTEYSASVKGRFTISRDKSKNTLYLQMNSLRAEDTATYYCTRDRGLRFYFDYWGQGTTVTVSSASTKGPSVFPLAPSSKSTSGGTAALGCLVEDYFPEPVTVSWNSGALTSGVHTFPAVLQSSGLYSLSSVVTVPSSSLGTQTYICNVNHKPSNTKVDEKVEPKSCDKTHTCPPCPAPEAAGGPSVFLFPPKPKDTLMISRTPEVTCVVVDVSHEDPEVKFNWYVDGVEVHNAKTKPREEQYNSTYRVVSVLTVLHQDWLNGKEYKCKVSNKALGAPIEKTISKAKGQPREPQVCTLPPSRDELTKNQVSLSCAVKGFYPSDIAVEWESNGQPENNYKTTPPVLDSDGSFFLVSKLTVDKSRWQQGNVFSCSVMHEALHNHYTQKSLSLSP light 1: QEQLVQSGAEVKKPGESLKISCKGSGFDFNTFWMTWVRQMPGKGLEWMGSIHGGSGSRDYSPSFQGQVTISADIDQSTAYLQWSSLKASDTAMYYCARPGYRSWSKTFDLWGQGTTVTVSSASVAAPSVFIFPPSDEQLKSGTASVVCLLNNFYPREAKVQWKVDNALQSGNSQESVTEQDSKDSTYSLSSTLTLSKADYEKHKVYACEVTHQGLSSPVTKSFNRGEC light 2: EIVLTQSPATLSLSPGERATLSCRASSSVTYIHWYQQKPGQAPRSWIYATSNLASGIPARFSGSGSGTDFTLTISSLEPEDFAVYYCQHWSSKPPTFGQGTKLEIKRTVAAPSVFIFPPSDRKLKSGTASVVCLLNNFYPREAKVQWKVDNALQSGNSQESVTEQDSKDSTYSLSSTLTLSKADYEKHKVYACEVTHQGLSSPVTKSFNRGEC | – | – | – | – | ~3 | 3.45 | 12.6 | 7.38 |
